Results reported in paper PMC9945441.
“And” between values parts separate entries of the source, which are not always exact repeats. Equal values may be shown once.

Legend:
[1] = biological target: Thermodesulfatator indicus HARP, recombinant (Thermodesulfatator indicus); test: mass photometry
[2] = biological target: Thermodesulfatator indicus HARP, recombinant (Thermodesulfatator indicus); test: SEC

stoichiometry N [1]: 2 and 4
stoichiometry N [2]: < 12
Substance: Thermodesulfatator indicus HARP, recombinant (enzyme)
